# ± gives the uncertainty stated by the source.
# Test system: HEK293T
# Assay: plasma membrane surface immunostaining intensity (anti-HA, deep receptor scanning) (arbitrary fluorescence units); higher = higher plasma membrane expression
sequence,measurement,setting,value
MEPRNQTSASQFILLGLSEKPEQETLLFSLFFCMYLVMVVGNLLIILAISIDSHLHTPMYFFLANLSLVDFCLATNTIPKMLVSLQTGSKAISYPCCLIQMYFFHFFGIVDSVIIAMMAYDRFVAICHPLHYAKIMSLRLCRLLVGALWAFSCFISLTHILLMARLVFCGSHEVPHYFCDLTPILRLSCTDTSVNRIFILIVAGMVIATPFVCILASYARILVAIMKVPSAGGRKKAFSTCSSHLSVVALFYGTTIGVYLCPSSVLTTVKEKASAVMYTAVTPMLNPFIYSLRNRDLKGALRKLVNRKITSSS [OR1M1],plasma membrane surface immunostaining intensity,GPCR class: A (Olfactory),130 ± 31
MNPDLDTGHNTSAPAHWGELKNANFTGPNQTSSNSTLPQLDITRAISVGLVLGAFILFAIVGNILVILSVACNRHLRTPTNYFIVNLAMADLLLSFTVLPFSAALEVLGYWVLGRIFCDIWAAVDVLCCTASILSLCAISIDRYIGVRYSLQYPTLVTRRKAILALLSVWVLSTVISIGPLLGWKEPAPNDDKECGVTEEPFYALFSSLGSFYIPLAVILVMYCRVYIVAKRTTKNLEAGVMKEMSNSKELTLRIHSKNFHEDTLSSTKAKGHNPRSSIAVKLFKFSREKKAAKTLGIVVGMFILCWLPFFIALPLGSLFSTLKPPDAVFKVVFWLGYFNSCLNPIIYPCSSKEFKRAFVRILGCQCRGRGRRRRRRRRRLGGCAYTYRPWTRGGSLERSQSRKDSLDDSGSCLSGSQRTLPSASPSPGYLGRGAPPPVELCAFPEWKAPGALLSLPAPEPPGRRGRHDSGPLFTFKLLTEPESPGTDGGASNGGCEAAADVANGQPGFKSNMPLAPGQF [ADRA1B],plasma membrane surface immunostaining intensity,GPCR class: A,6200 ± 240
MAWRGAGPSVPGAPGGVGLSLGLLLQLLLLLGPARGFGDEEERRCDPIRISMCQNLGYNVTKMPNLVGHELQTDAELQLTTFTPLIQYGCSSQLQFFLCSVYVPMCTEKINIPIGPCGGMCLSVKRRCEPVLKEFGFAWPESLNCSKFPPQNDHNHMCMEGPGDEEVPLPHKTPIQPGEECHSVGTNSDQYIWVKRSLNCVLKCGYDAGLYSRSAKEFTDIWMAVWASLCFISTAFTVLTFLIDSSRFSYPERPIIFLSMCYNIYSIAYIVRLTVGRERISCDFEEAAEPVLIQEGLKNTGCAIIFLLMYFFGMASSIWWVILTLTWFLAAGLKWGHEAIEMHSSYFHIAAWAIPAVKTIVILIMRLVDADELTGLCYVGNQNLDALTGFVVAPLFTYLVIGTLFIAAGLVALFKIRSNLQKDGTKTDKLERLMVKIGVFSVLYTVPATCVIACYFYEISNWALFRYSADDSNMAVEMLKIFMSLLVGITSGMWIWSAKTLHTWQKCSNRLVNSGKVKREKRGNGWVKPGKGSETVV [FZD4],plasma membrane surface immunostaining intensity,GPCR class: F,5830 ± 270
MDPTISTLDTELTPINGTEETLCYKQTLSLTVLTCIVSLVGLTGNAVVLWLLGCRMRRNAFSIYILNLAAADFLFLSGRLIYSLLSFISIPHTISKILYPVMMFSYFAGLSFLSAVSTERCLSVLWPIWYRCHRPTHLSAVVCVLLWALSLLRSILEWMLCGFLFSGADSAWCQTSDFITVAWLIFLCVVLCGSSLVLLIRILCGSRKIPLTRLYVTILLTVLVFLLCGLPFGIQFFLFLWIHVDREVLFCHVHLVSIFLSALNSSANPIIYFFVGSFRQRQNRQNLKLVLQRALQDASEVDEGGGQLPEEILELSGSRLEQ [MRGPRX1],plasma membrane surface immunostaining intensity,GPCR class: A,6278 ± 45
MGGRVFLVFLAFCVWLTLPGAETQDSRGCARWCPQDSSCVNATACRCNPGFSSFSEIITTPMETCDDINECATLSKVSCGKFSDCWNTEGSYDCVCSPGYEPVSGAKTFKNESENTCQDVDECQQNPRLCKSYGTCVNTLGSYTCQCLPGFKLKPEDPKLCTDVNECTSGQNPCHSSTHCLNNVGSYQCRCRPGWQPIPGSPNGPNNTVCEDVDECSSGQHQCDSSTVCFNTVGSYSCRCRPGWKPRHGIPNNQKDTVCEDMTFSTWTPPPGVHSQTLSRFFDKVQDLGRDYKPGLANNTIQSILQALDELLEAPGDLETLPRLQQHCVASHLLDGLEDVLRGLSKNLSNGLLNFSYPAGTELSLEVQKQVDRSVTLRQNQAVMQLDWNQAQKSGDPGPSVVGLVSIPGMGKLLAEAPLVLEPEKQMLLHETHQGLLQDGSPILLSDVISAFLSNNDTQNLSSPVTFTFSHRSVIPRQKVLCVFWEHGQNGCGHWATTGCSTIGTRDTSTICRCTHLSSFAVLMAHYDVQEEDPVLTVITYMGLSVSLLCLLLAALTFLLCKAIQNTSTSLHLQLSLCLFLAHLLFLVAIDQTGHKVLCSIIAGTLHYLYLATLTWMLLEALYLFLTARNLTVVNYSSINRFMKKLMFPVGYGVPAVTVAISAASRPHLYGTPSRCWLQPEKGFIWGFLGPVCAIFSVNLVLFLVTLWILKNRLSSLNSEVSTLRNTRMLAFKATAQLFILGCTWCLGILQVGPAARVMAYLFTIINSLQGVFIFLVYCLLSQQVREQYGKWSKGIRKLKTESEMHTLSSSAKADTSKPSTVN [ADGRE2],plasma membrane surface immunostaining intensity,GPCR class: B,6310 ± 78
